From patent US20170218064A1 (Stanford University, published 2017)

T1: human neuromedin U (NMU), bioactive processed 25 amino acid form (human, C-terminal amidation (-NH2))
T1 construct: In the serum ELISAs the target is endogenous circulating human NMU; also called human NMU; NMU-25
T1 peptide: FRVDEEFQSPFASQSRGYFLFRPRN


Target: T1, human neuromedin U (NMU), bioactive …
Experiment: not described

binding result	Binder
binds	anti-NMU monoclonal antibody 2A16 (antibody, V domains shown, Monoclonal antibody from a mouse hybridoma) VH: QIQLVQSGPELKKPGETVKISCKASGYTFTKHGMNWMKQAPGKGLKWMGWINTNTGEPTYSEEFKGRFAFSLETSASTAYLQINNLKNEDTATYFCARTGRYGVDYWGKGTSVTVSS VL: DIQMTQSPSSLSASLGERVSLTCRASQDIGSNLNWIQQEPDGTIKRLIYATSTLDSGVPKRFSGSRSGSDYFLTISSLESEDFVDYYCLQFDSSPLTFGAGTKLELK
binds	anti-NMU monoclonal antibody C578 (antibody, V domains shown, Monoclonal antibody from a mouse hybridoma) VH: EVQLQQSGAELVRSGASVKLSCAASGFNIKDYYIHWVKQRPEQGLEWIGWIDPENGDNECAPKFQGKATMTADTSSNTAYLQLTSLTSEDTAVYYCNAGKGDYWGQGTTLTVSS VL: NIVMTQSPSSLAMSIGQKVTMSCRSSQSLLNSSNQKNYLAWYQQKPGQSPKLLVYFASTRESGVPARFIGSGSGTDFTLTISSVQAEDLADYFCQQHYSTPFTFGSGTKLEIK
